Assay [1] concerns the target Germline κI O18/O8 light chain variable domain (VL) (human).
Assay [2] has the same target. The source holds these as a separate data set.

In turn, “Germline κI O18/O8 light chain variable domain (VL) (domain or fragment)” registered a yield of de novo fibril formation (percent of the initial monomer in fibrils) in assay [1] of 93.4%. This substance also yielded a t50 of de novo (nonseeded) ThT fibril formation of 20 µM κI, pH 2.0, 37 °C in assay [2] of 266 h.
